According to article PMC10040528, “A [4Fe-4S] cluster resides at the active center of phosphomevalonate dehydratase, a key enzyme in the archaeal modified mevalonate pathway” (Frontiers in Microbiology, 2023):
Blank lines part the entries; values can stand above or below the binder they belong to.

Assays:
[1] = substrate: C/C(=C\C(=O)O)CCOP(=O)(O)O; assay: coupled colorimetric assay (MVA5P kinase/pyruvate kinase/pyruvate oxidase/peroxidase, resorufin), Michaelis-Menten fit; format: biochemical, Aeropyrum pernix; conditions: reverse reaction (hydration of tAHMP to MVA5P), 70 mM Tris-HCl pH 7.0, 70 °C, anaerobic, reconstructed His-tagged enzyme
Source text: coupled colorimetric assay (MVA5P kinase/pyruvate kinase/pyruvate oxidase/peroxidase, resorufin), Michaelis-Menten fit on […]

[2] = target: T1, Aeropyrum pernix phosphomevalonate dehydratase (ApPMDh) large subunit Ape_2087.1, polyhistidine-tagged (Aeropyrum pernix, UniProt Q9YA51 1-402); assay: pull-down; as a1, but from a mixture of about equal amounts of cells co-expressing both subunits and cells expressing only untagged Ape_2089 (excess small subunit supplied); subunit ratio from SDS-PAGE and ImageJ; conditions: partners not purified
T1 construct: large subunit Ape_2087.1 of phosphomevalonate dehydratase (type IIb aconitase X), Aeropyrum pernix; also called (His)6-Ape2087.1; large subunit of ApPMDh; source: E. coli Rosetta2 (DE3), pET-HisApPMDh, co-expressed with Ape_2089; heat-treated cell extract, Histrap FF; not shown: polyhistidine ((His)6), N-terminal, kept
T1 sequence (looked up): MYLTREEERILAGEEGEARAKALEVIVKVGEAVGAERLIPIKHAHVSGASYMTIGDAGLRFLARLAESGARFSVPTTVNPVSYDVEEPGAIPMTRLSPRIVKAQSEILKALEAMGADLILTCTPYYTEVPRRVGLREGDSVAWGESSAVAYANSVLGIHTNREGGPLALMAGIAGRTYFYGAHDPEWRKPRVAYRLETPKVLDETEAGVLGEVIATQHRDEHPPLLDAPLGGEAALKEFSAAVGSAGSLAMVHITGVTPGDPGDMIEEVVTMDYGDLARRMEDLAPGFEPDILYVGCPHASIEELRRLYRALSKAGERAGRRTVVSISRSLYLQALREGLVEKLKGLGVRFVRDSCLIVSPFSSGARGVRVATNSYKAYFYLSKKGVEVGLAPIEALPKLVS

[3] = target: T1, Aeropyrum pernix phosphomevalonate …; assay: pull-down; polyhistidine-tagged large subunit co-expressed with untagged small subunit in E. coli; heat-treated (60°C, 30 min) cell extract on Histrap FF, anaerobic; 20 mM sodium phosphate pH 7.4, 500 mM NaCl, 20 mM imidazole; eluted with 150 mM imidazole; subunit ratio from 15% SDS-PAGE and ImageJ; conditions: partners not purified

B1: ApPMDh (Aeropyrum pernix phosphomevalonate dehydratase) (Aeropyrum pernix K1) (protein)
chain 1: T1 sequence (looked up)
chain 2: MEVLRYRSRPIVGGEAEGPAVVIDSLSFYGEVDPETGVTSGGKPLAGRVAAIRRSRGSTVGSYVIYALKENGVAPLAILMERAEPIVIAGCVLAGIPLYDGLPPEFFERVRDGYRVRVHSDGLVEVLGPGQP
notes: N-terminal His6 tag with HRV3C site on large subunit, small subunit untagged; co-expressed in E. coli Rosetta2(DE3); 1:1 heteromeric complex; tag kept for kinetics, cut for EPR and iron assay; Fe-S cluster reconstituted anaerobically
Km [1]: 18.3 µM
kcat [1]: 15.2 s⁻¹

stoichiometry N [2]: ~1 small subunit per large subunit
stoichiometry N [3]: 1 small subunit per large subunit
B2: Aeropyrum pernix phosphomevalonate dehydratase (ApPMDh) small subunit Ape_2089, untagged (natural protein, UniProt Q9YA49 1-132, looked up)
chain: B1 chain 2
notes: small subunit Ape_2089 of phosphomevalonate dehydratase (type IIb aconitase X), Aeropyrum pernix; also called tag-free Ape_2089; small subunit of ApPMDh; source: E. coli Rosetta2 (DE3), co-expressed from pET-HisApPMDh (and expressed alone from pET-ApPMDh-S); heat-treated cell extract
